Measured values: patent publication US20180340159

Target: T1, propeptide of Rhizomucor miehei lipase (RmL)
T1 chain: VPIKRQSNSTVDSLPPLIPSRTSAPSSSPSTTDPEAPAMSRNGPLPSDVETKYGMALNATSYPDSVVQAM

B1: Rhizomucor miehei lipase (RmL) wild type mature protein (protein)
chain: SIDGGIRAATSQEINELTYYTTLSANSYCRTVIPGATWDCIHCDATEDLKIIKTWSTLIYDTNAMVARGDSEKTIYIVFRGSSSIRNWIADLTFVPVSYPPVSGTKVHKGFLDSYGEVQNELVATVLDQFKQYPSYKVAVTGHSLGGATALLCALDLYQREEGLSSSNLFLYTQGQPRVGDPAFANYVVSTGIPYRRTVNERDIVPHLPPAAFGFLHAGEEYWITDNSPETVQVCTSDLETSDCSNSIVPFTSVLDHLSYFGINTGLCT
Protein B1 has a lipase hydrolytic activity (4-MU oleate), average slope; incubated with 5 µM TCEP of 22 RFU/sec, a lipase hydrolytic activity (4-MU oleate), average slope; incubated with 5 uM TCEP + Model B of 66 RFU/sec and a lipase hydrolytic activity (4-MU oleate), average slope; incubated with 1.35% Savinase + Model B of 143 RFU/sec. It also gave a lipase hydrolytic activity (4-MU oleate), average slope; incubated with 2% NaSO2 of 28 RFU/sec and a lipase hydrolytic activity (4-MU oleate), average slope; incubated with 2% NaSO2 + Model B of 66 RFU/sec.
